Assay [1] has as its target Human PD-L2-HIS (human) (UniProt Q9BQ51). In words: Octet binning; competitor 24F.10C12. (In general: Biolayer interferometry detects binding as a change in optical thickness at a sensor tip.)
For assay [2] the target is unchanged. The assay is described as follows: Octet binning; competitor PDL2-13 (column 11).
Assay [3] has the same target. In words: Octet binning; competitor PDL2-13 (column 7).
Assay [4] has the same target. In words: Octet binning; competitor MIH18.
For assay [5] the target is unchanged. In words: Octet binning; competitor BiPDL4-12.
The target is the same in assay [6]. In words: Octet binning; competitor PDL2-23.
The target is the same in assay [7]. The assay is described as follows: Octet binning; competitor BiPDL4-14.
For assay [8] the target is unchanged. In words: Octet binning; competitor BiPDL4-13.
Assay [9] has the same target. In words: Octet binning; competitor PDL2-21.
The target is the same in assay [10]. In words: Octet binning; competitor BiPDL4-11.
Assay [11] deals with PD-1 (on Jurkat T Cell).
The target in assay [12] is PD-1 (on Jurkat T Cell). This is another data set of the same source.

Chain of Human PD-L2-HIS (human) (Q9BQ51 20-220): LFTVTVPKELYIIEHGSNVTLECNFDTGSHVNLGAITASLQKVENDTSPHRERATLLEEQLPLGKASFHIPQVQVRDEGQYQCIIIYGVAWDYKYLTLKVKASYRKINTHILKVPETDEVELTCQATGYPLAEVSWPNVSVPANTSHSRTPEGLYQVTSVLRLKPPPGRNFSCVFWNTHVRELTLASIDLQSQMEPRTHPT

Regarding 24F.10C12 (antibody), the % of unblocked Ab2 binding signal in [1] was found to be 4.99%; in assay [2], 6.3%; in assay [3] it was 7.11%; in assay [4], 63.8%; in assay [5], 57.5%; in assay [6], 5.98%. Also, the % of unblocked Ab2 binding signal is 62.8% in [7], 56.9% in assay [8], 5.24% in assay [9] and 50.5% in assay [10].

With Keytruda (antibody), the EC50 (read off the curve); Fold induction of luciferase, Promega: CHO-PD-L1/PD-L2 dual cells with PD-1 Jurkat reporter cells in assay [11] was 0.7 nM. The substance further had an EC50 (read off the curve); Luc Activity, Promega CHO-PDL1/PD-L2 dual cells with NFAT-Luc Jurkat T cells in assay [12] of 2 nM.

Take MIH18 (antibody): the % of unblocked Ab2 binding signal in assay [1] was determined as 71.4%; in assay [2], 82.5%; in [3], 73.7%; in [4] it was 5.73%; in [5] it was 60.6%; in assay [6] it was 70.3%. The % of unblocked Ab2 binding signal in assay [7] was determined as 63.4%; in assay [8], 57%; in [9], 74.7%; in assay [10] it was 47.9%.

The values are drawn from US20250059282A1.
